Assay results reported in article PMC4004597.

Assays:
[1] = target: S. cerevisiae Nup57 of the short scNup49-Nup57-Nsp1 complex (S. cerevisiae) (UniProt P48837); experiment: SEC
[2] = target: S. cerevisiae Nup57 of the short scNup49-Nup57-Nsp1 complex (S. cerevisiae) (UniProt P48837); experiment: AUC
[3] = target: S. cerevisiae Nsp1 of the short scNup49-Nup57-Nsp1 complex (S. cerevisiae) (UniProt P14907); experiment: SEC
[4] = target: S. cerevisiae Nsp1 of the short scNup49-Nup57-Nsp1 complex (S. cerevisiae) (UniProt P14907); experiment: AUC

S. cerevisiae Nup57 of the short scNup49-Nup57-Nsp1 complex (S. cerevisiae), sequence (P48837 whole entry, one chain of several): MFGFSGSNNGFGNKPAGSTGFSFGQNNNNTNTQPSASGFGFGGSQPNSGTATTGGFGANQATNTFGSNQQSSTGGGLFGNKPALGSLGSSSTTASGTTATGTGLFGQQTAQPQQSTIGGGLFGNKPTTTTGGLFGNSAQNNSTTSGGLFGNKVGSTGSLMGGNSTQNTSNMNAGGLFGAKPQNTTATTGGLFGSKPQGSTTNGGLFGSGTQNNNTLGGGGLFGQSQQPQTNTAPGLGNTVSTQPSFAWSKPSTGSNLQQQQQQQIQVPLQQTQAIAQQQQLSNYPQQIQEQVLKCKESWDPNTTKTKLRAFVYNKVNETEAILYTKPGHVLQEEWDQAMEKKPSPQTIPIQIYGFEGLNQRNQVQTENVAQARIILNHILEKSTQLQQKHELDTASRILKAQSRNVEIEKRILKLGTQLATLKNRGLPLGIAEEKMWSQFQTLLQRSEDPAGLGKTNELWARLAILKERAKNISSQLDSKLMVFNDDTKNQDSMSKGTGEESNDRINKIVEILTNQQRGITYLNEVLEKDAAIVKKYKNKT

Row | stoichiometry N [1] | stoichiometry N [2] | stoichiometry N [3] | stoichiometry N [4] | Substance
1 | 1 | 1 | – | – | S. cerevisiae Nup49 of the short scNup49-Nup57-Nsp1 complex (from UniProt Q02199 1-472) (domain or fragment)
2 | – | – | 1 | 1 | S. cerevisiae Nup57 of the short scNup49-Nup57-Nsp1 complex (from UniProt P48837 1-541) (domain or fragment)
